Paper PMC4908164

Tests used:
[1] = biological target: Yeast cytochrome c peroxidase C128A with MSKT as the first four N-terminal residues (yeast) (UniProt P00431); assay: paramagnetic relaxation enhancement NMR; intermolecular PRE: 200 uM [15N,2H] CcP WT (C128A) with 200 uM unlabelled MTSL- or MTS-tagged N38C, N200C or T288C CcP; 20 mM NaPi, 100 mM NaCl, pH 6.0, 293 K; fraction bound and KD estimated from PRE-driven ensemble docking with an assumed correlation time of 45 ns
[2] = biological target: cytochrome c peroxidase (Saccharomyces cerevisiae) (UniProt P00431); conditions: cited from earlier work

Chain of cytochrome c (P00044 2-109): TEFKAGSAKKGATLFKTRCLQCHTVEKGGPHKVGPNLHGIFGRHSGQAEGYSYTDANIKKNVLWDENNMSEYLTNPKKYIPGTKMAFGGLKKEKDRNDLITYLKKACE

| Substance | Kd [1] [µM] | fraction bound [1] | Kd [2] [µM] |
| --- | --- | --- | --- |
| Yeast cytochrome c peroxidase C128A N200C tagged with MTSL (or diamagnetic MTS) at C200 (from UniProt P00431 71-361) (enzyme) | 360 | 0.4 | – |
| Yeast cytochrome c peroxidase C128A T288C tagged with MTSL (or diamagnetic MTS) at C288 (from UniProt P00431 71-361) (enzyme) | 360 | 0.4 | – |
| cytochrome c (from UniProt P00044) | – | – | 5 |
| Yeast cytochrome c peroxidase C128A N38C tagged with MTSL (or diamagnetic MTS) at C38 (from UniProt P00431 71-361) (enzyme) | 360 | 0.4 | – |
